Key:
[1] = target: T1, AAA1 N^α -acetyltransferase (N^α -AT) (Saccharomyces cerevisiae, UniProt P07347+P12945); assay: Relative activity of N^α -AT for N^α -acetylation of synthetic peptides; type: biochemical; conditions: Table 7, influence of the penultimate amino terminal residue
T1 sequence (P12945 2-854 limits assumed): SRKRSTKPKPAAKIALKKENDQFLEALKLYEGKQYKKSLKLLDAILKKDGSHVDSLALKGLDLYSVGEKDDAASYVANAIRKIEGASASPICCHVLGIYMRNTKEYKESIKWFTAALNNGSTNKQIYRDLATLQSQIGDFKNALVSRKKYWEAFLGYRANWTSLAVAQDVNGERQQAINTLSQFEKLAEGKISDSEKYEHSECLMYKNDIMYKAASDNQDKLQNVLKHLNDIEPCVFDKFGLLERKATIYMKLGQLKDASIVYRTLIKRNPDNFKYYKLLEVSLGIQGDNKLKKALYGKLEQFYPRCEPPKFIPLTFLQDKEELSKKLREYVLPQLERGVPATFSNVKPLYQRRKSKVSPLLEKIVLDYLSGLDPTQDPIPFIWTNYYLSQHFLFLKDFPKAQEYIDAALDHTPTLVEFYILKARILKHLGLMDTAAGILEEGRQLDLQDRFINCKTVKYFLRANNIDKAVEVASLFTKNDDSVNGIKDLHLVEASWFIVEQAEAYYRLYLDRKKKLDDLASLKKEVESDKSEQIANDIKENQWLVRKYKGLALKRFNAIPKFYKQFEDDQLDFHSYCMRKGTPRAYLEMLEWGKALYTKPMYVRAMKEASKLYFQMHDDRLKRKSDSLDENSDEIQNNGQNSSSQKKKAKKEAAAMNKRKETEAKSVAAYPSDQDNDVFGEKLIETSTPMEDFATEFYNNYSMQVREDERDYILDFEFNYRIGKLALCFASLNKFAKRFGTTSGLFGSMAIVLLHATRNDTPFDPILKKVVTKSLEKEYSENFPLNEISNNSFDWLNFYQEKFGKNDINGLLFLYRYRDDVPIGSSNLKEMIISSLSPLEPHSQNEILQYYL
T1 sequence (P07347 1-238): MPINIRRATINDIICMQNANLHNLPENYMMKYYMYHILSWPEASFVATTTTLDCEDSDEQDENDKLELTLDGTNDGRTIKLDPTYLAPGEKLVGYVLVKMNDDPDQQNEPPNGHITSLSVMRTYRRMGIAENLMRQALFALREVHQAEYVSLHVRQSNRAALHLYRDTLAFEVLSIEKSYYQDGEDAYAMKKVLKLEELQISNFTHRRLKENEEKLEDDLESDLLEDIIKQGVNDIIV
Experimental: (§1) N^α -acetylt[…] was determined as previously described [Lee et al., J. Biol. Chem. 263:14948-14955 (1988)]. Aliquots of the lysate or chromatographic fractions were added to 1.5 ml Eppendorf tubes containing a reaction mixture of 50 mM HEPES, pH 7.4, 150 mM KCl, 1 mM DTT, 25 μM [^3 H] acetyl coenzyme A (0.5 μCi) and 50 μM synthetic peptide with an adjusted final volume of 100 μl. The assay mixture was incubated at 30° C. for 30 min. The reaction was stopped by adding 17 μl of 0.5M acetic acid and chilled in an ice bath. The reaction samples were filtered through SP membrane discs (Cuno) (previously pre-swollen in 0.5M acetic acid), and then washed three times with 1 ml of 0.5M acetic acid on a Millipore 1225 sampling manifold. The partially dried membranes were placed in scintillation cocktail and counted with a Beckman LS 3801 scintillation counter. One unit of activity was defined as the amount of enzyme able to transfer 1 pmol of [^3 H] acetyl group from [^3 H] acetyl coenzyme A to synthetic peptide per min under standard enzyme assay conditions defined above.
(§2) In order to compare the relative specificity and activity of the methionine N^α -acetylt[…] (M-N^α -AT) of the present invention with the specificity and activity of the AAA1 N^α -acetyltransferase (N^α -AT) of Lee, F.-J. S., et al., J. Bacteriol. 171, (1989), U.S. Patent Application of John A. Smith, and Fang-Jen S. Lee, filed Oct. 25, 1989, entitled "ISOLATION OF STRAINS OF SAC[…] ALTERED N^α -ACETYLT[…]" (which references have been incorporated herein by reference) synthetic peptides were prepared. These peptides were assessed for their ability to serve as substrates for the two enzymes. In Table 6, the effect of the amino terminal amino acid on activity is investigated; in Table 7, the effect of the penultimate amino terminal amino acid on activity is investigated.

[2] = test system: methionine N^α -acetyltransferase (M-N^α -AT); assay: Relative activity of M-N^α -AT for N^α -acetylation of synthetic peptides; type: biochemical, Saccharomyces cerevisiae; parameters: tested at 50 µM; conditions: Table 7, influence of the penultimate amino terminal residue
Experimental: as §1, §2

Substance	Activity (%) (mean activity ± S.D.) N^a -AT [1]	Activity (%) (mean activity ± S.D.) M-N^a -AT [2]
SEPETQKGVIFYESHGKLEYKDIP (SEPETQKGVIFYESHGKLEYKDIP)	121 ± 6	0
SFPETQKGVIFYESHGKLEYKDIP (SFPETQKGVIFYESHGKLEYKDIP)	118 ± 6	0
SGPETQKGVIFYESHGKLEYKDIP (SGPETQKGVIFYESHGKLEYKDIP)	84 ± 5	0
SHPETQKGVIFYESHGKLEYKDIP (SHPETQKGVIFYESHGKLEYKDIP)	125 ± 6	0
SKPETQKGVIFYESHGKLEYKDIP (SKPETQKGVIFYESHGKLEYKDIP)	151 ± 6	0
SLPETQKGVIFYESHGKLEYKDIP (SLPETQKGVIFYESHGKLEYKDIP)	126 ± 5	0
SMPETQKGVIFYESHGKLEYKDIP (SMPETQKGVIFYESHGKLEYKDIP)	140 ± 7	0
SNPETQKGVIFYESHGKLEYKDIP (SNPETQKGVIFYESHGKLEYKDIP)	116 ± 5	0
SPPETQKGVIFYESHGKLEYKDIP (SPPETQKGVIFYESHGKLEYKDIP)	0	0
SQPETQKGVIFYESHGKLEYKDIP (SQPETQKGVIFYESHGKLEYKDIP)	134 ± 7	0
SRPETQKGVIFYESHGKLEYKDIP (SRPETQKGVIFYESHGKLEYKDIP)	102 ± 5	0
SSPETQKGVIFYESHGKLEYKDIP (SSPETQKGVIFYESHGKLEYKDIP)	140 ± 6	0
STPETQKGVIFYESHGKLEYKDIP (STPETQKGVIFYESHGKLEYKDIP)	144 ± 8	0
SVPETQKGVIFYESHGKLEYKDIP (SVPETQKGVIFYESHGKLEYKDIP)	123 ± 7	0
SWPETQKGVIFYESHGKLEYKDIP (SWPETQKGVIFYESHGKLEYKDIP)	91 ± 5	0
SYPETQKGVIFYESHGKLEYKDIP (SYPETQKGVIFYESHGKLEYKDIP)	169 ± 8	0
